Source: article doi:10.1101/361857 (bioRxiv, 2018)
Like-named read-outs stand apart in the source and are kept apart here. Ends that are not written are not given here. * marks the point of attachment. diazirine‑based cleavable photocrosslinker = not defined here; Biotin = O=C1N[C@H]2[C@H](CS[C@H]2CCCCC(=O)*)N1

B1: MKK4 D-motif peptide wt (wild-type) (peptide)
peptide: Biotin-C(diazirine‑based cleavable photocrosslinker)QGKRKALKLNFANW
modifications: reading uncertain
B2: MKK4 D-motif peptide I (peptide)
peptide: Biotin-C(diazirine‑based cleavable photocrosslinker)GKRKALKLNFANW
modifications: reading uncertain
B3: MKK4 D-motif peptide II (peptide)
peptide: Biotin-C(diazirine‑based cleavable photocrosslinker)KRKALKLNFANW
modifications: reading uncertain

Assays:
Test in all cases: cross-linking
[1] = biological target: T1, JNK1 β-1 isoform lacking 20 amino acids from the C-terminus (JNK1 ΔC20) (human, UniProt P45983-3 1-364)
[2] = biological target: T1, JNK1 β-1 isoform lacking 20 amino acids …; remark: listed apart in the source
[3] = biological target: ERK2 (human, UniProt P28482 1-360)
Chain of ERK2 (P28482 whole entry): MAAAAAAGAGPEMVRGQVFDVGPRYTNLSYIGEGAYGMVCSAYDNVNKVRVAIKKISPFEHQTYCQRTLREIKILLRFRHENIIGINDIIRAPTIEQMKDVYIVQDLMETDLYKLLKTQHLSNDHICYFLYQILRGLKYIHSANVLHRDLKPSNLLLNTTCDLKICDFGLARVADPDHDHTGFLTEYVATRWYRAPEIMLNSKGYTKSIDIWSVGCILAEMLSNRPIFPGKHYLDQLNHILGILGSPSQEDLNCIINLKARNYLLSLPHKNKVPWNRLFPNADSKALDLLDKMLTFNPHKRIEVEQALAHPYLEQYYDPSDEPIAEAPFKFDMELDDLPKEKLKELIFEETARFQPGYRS

Binder | binding result [1] | binding result [2] | binding result [3]
B1 | binds | – | –
B2 | – | binds | binds
B3 | – | binds | binds
